# Measured values: patent US20240016892A1 (SHATTUCK LABS, published 2024)
# T1: recombinant human PVR (human, UniProt P15151 21-343)
# T1 construct: The tagged PVR of the BLI assay and the biotinylated PVR used as detector in MSD are treated as one molecule; also called rhPVR; CD155
# T1 sequence (looked up): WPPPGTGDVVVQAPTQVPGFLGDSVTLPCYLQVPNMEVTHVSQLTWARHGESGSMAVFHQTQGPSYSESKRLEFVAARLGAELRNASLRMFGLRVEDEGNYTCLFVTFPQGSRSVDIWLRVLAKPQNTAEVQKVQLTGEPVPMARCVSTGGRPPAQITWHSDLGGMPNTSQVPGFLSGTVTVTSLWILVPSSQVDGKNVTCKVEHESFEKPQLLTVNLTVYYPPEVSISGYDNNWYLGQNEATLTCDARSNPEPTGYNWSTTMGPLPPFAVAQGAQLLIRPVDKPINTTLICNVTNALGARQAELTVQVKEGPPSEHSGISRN
# T2: cell surface human PVR (CHO-K1/hPVR cells) (human, UniProt P15151 21-417)
# T2 construct: whole, on cells; also called cell surface PVR; CD155(PVR)
# T2 sequence (looked up): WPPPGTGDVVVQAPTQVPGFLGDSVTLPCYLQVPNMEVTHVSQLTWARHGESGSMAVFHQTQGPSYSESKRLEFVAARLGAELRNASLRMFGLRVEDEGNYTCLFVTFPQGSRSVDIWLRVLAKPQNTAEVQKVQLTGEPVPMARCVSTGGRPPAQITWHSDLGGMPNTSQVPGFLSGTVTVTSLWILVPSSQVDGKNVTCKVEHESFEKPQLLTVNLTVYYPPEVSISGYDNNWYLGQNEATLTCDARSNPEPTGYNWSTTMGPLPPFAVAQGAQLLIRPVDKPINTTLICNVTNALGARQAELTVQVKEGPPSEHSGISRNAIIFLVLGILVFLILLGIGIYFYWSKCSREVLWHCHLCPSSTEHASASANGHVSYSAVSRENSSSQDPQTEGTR
# T3: cell surface human HVEM (CHO-K1/hHVEM cells; Jurkat effector cells; human PBMC) (human, UniProt Q92956 39-283)
# T3 construct: whole, on cells; also called cell surface HVEM
# T3 sequence (looked up): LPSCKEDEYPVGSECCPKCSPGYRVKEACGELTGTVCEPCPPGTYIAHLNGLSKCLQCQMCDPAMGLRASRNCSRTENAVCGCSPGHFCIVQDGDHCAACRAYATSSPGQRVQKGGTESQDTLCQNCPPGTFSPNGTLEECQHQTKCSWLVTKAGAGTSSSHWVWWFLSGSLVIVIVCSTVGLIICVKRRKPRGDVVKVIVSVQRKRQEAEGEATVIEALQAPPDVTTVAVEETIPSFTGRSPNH
# Tests used:
# recombinant human PVR = target: T1, recombinant human PVR; assay: BLI (Octet-Red96), tagged rhPVR immobilised on biosensor
# Method: (§1) Bio-Layer interferometry-based affinity testing was used to determine the on-rates (Ka), off-rates (Kd) and binding affinities (KD) of the TIGIT-Fc-LIGHT chimeric protein to intended binding targets, using histidine- or biotin-tagged versions of the human recombinant proteins (PVR, HVEM, LTβR, PVRL2, PVRL3, and Nectin-4; purchased from Acro Biosystems or Sino Biological). Commercially available or internally produced single-sided fusion protein controls (TIGIT-Fc and Fc-LIGHT) were also tested in parallel. Targets were immobilized at a concentration of 3 μg/mL in Kinetics buffer (PBS/0.1% Tween-20/1% BSA; pH7.0) to anti-pentaHis or streptavidin coated biosensors. Direct binding of fusion proteins to recombinant target proteins was performed on an Octet-Red96 BLI instrument, using association and dissociation times of 90 and 120 seconds, respectively.
# (§2) Protein-protein interactions (PPI) between the fusion proteins and their cognate binding partners were characterized using both recombinant protein and cell-based methods. First, bio-layer interferometry-based affinity testing was used to assess the kinetics of receptor/ligand binding.
# recombinant human LTβR = target: T4, recombinant human LTβR (human, UniProt P36941 31-227, limits assumed); assay: BLI (Octet-Red96), tagged rhLTβR immobilised on biosensor
# T4 construct: Bought from Acro Biosystems or Sino Biological; construct limits and tag not specified; also called rhLTβR; TNFRSF3
# T4 sequence (P36941 31-227 limits assumed): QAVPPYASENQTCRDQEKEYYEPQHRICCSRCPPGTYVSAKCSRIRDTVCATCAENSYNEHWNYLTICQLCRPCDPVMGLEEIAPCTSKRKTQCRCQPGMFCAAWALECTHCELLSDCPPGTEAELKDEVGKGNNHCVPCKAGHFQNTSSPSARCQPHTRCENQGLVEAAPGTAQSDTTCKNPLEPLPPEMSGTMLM
# Method: as §1, §2
# [1] = target: T5, cell surface human LTβR (A375 cells; U2OS/NIK/NFκB reporter cells) (human, UniProt P36941 31-435); assay: flow cytometry, A375 cells that express human LTβR; cell surface LTβR
# T5 construct: whole, on cells; also called cell surface LTβR
# T5 sequence (P36941 31-435): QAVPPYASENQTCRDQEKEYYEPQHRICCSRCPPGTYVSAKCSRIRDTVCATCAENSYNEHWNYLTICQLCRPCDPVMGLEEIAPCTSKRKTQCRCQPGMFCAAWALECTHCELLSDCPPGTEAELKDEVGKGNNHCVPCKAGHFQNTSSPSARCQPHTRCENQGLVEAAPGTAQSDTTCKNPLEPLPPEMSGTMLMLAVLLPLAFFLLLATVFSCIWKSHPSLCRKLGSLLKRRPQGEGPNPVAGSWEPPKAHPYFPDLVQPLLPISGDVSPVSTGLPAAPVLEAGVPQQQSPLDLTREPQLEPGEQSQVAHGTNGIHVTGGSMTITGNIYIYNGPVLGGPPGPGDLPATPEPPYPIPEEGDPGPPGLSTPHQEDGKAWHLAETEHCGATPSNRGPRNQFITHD
# [2] = target: T2, cell surface human PVR (CHO-K1/hPVR …); assay: flow cytometry, CHO-K1 cells stably expressing human PVR; cell surface PVR
# [3] = target: T3, cell surface human HVEM (CHO-K1/hHVEM …); assay: flow cytometry, CHO-K1 cells stably expressing human HVEM; cell surface HVEM
# [4] = target: T6, recombinant human LTβR-Fc (human, UniProt P36941 31-227, limits assumed); assay: MSD sandwich 'Dual - Potency #1': capture LTβR-Fc, TIGIT-Fc-LIGHT titrated, detection PVR-Biotin
# T6 construct: not shown: Fc of the bought fusion (Acro Biosystems); not described
# T6 sequence (P36941 31-227 limits assumed): as the sequence (P36941 31-227 limits assumed) above
# Method: For the TIGIT-Fc-LIGHT chimeric protein; MSD Multi-Array plates (MSD) were pre-coated overnight with recombinant human LTβR-Fc or HVEM-Fc (Acro Biosystems) at 4° C. The plates were blocked with Diluent 100 (MSD) for at least one hour at room temperature on a shaker. After washing, analysis samples were added and then serially diluted 3-fold and loaded in duplicate wells to generate 8-10 test concentrations. The bound the TIGIT-Fc-LIGHT chimeric protein was detected with recombinant biotinylated human PVR (Acro Biosystems). Streptavidin conjugated to ruthenium (MSD), was added to bind the biotin labeled detector. MSD Gold Reading buffer (MSD) was added to the plate, and upon application of an electrical charge, an electrochemiluminescent signal was produced and detected with the MSD MESO QuickPlex SQ 120MM, Model 1300, to generate relative light units (RLU). Analogous assays were performed using mTIGIT-Fc-LIGHT and murine recombinant PVR, HVEM, and […] (Acro Biosystems).
# The binding of the TIGIT-Fc-LIGHT chimeric protein to its receptors was characterized by Meso Scale Discovery (MSD) ELISA assays. […] Binding of the chimeric protein to LTβR-Fc was detected using an PVR-Biotin and using an electrochemiluminescence (ECL) readout. […] Binding of the chimeric protein to HVEM-Fc was detected using an PVR-Biotin and using an electrochemiluminescence (ECL) readout. […]
binder,measurement,setting,value
"human TIGIT-Fc-LIGHT chimeric protein (Fc fusion, Said to exist as a hexamer (dimer of trimers); Glycosylated; also called hTIGIT-Fc-LIGHT; TIGIT-Fc(IgG4)-LIGHT) MMTGTIETTGNISAEKGGSIILQCHLSSTTAQVTQVNWEQQDQLLAICNADLGWHISPSFKDRVAPGPGLGLTLQSLTVNDTGEYFCIYHTYPDGTYTGRIFLEVLESSVAEHGARFQIPSKYGPPCPPCPAPEFLGGPSVFLFPPKPKDQLMISRTPEVTCVVVDVSQEDPEVQFNWYVDGVEVHNAKTKPREEQFNSTYRVVSVLTVLHQDWLSGKEYKCKVSSKGLPSSIEKTISNATGQPREPQVYTLPPSQEEMTKNQVSLTCLVKGFYPSDIAVEWESNGQPENNYKTTPPVLDSDGSFFLYSRLTVDKSRWQEGNVFSCSVLHEALHNHYTQKSLSLSLGKIEGRMDLQLHWRLGEMVTRLPDGPAGSWEQLIQERRSHEVNPAAHLTGANSSLTGSGGPLLWETQLGLAFLRGLSYHDGALVVTKAGYYYIYSKVQLGGVGCPLGLASTITHGLYKRTPRYPEELELLVSQQSPCGRATSSSRVWWDSSFLGGVVHLEAGEKVVVRVLDERLVRLRDGTRSYFGAFMV",Kd,recombinant human PVR,4.07 nM
same,koff,recombinant human PVR,0.000103 s⁻¹
same,kon,recombinant human PVR,25300 M⁻¹ s⁻¹
same,Kd,recombinant human LTβR,3.52 nM
same,koff,recombinant human LTβR,7.44e-05 s⁻¹
same,kon,recombinant human LTβR,21200 M⁻¹ s⁻¹
same,EC50,[1],87.1 nM
same,EC50,[2],35.4 nM
same,EC50,[3],65.8 nM
same,EC50,[4],28.3 nM
